Assay results from publication PMC12416549 (2024).
Numbering of substitutions follows the chain as printed. In names and notes the source's numbering stands.

Target: T1, TNFR1 (Homo sapiens, UniProt P19438)
T1 chain: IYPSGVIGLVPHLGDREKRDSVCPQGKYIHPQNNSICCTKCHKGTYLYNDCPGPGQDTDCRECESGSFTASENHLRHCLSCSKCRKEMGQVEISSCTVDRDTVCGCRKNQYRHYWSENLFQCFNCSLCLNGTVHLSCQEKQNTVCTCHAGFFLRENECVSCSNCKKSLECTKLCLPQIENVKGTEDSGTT
Test: yeast display SC50

B1: A51F (designed binder)
chain: SMEEEVEKAAKEYEKKKKEAIEKHLEKLKAKDKEAAERFLKELEEAAKEYFKDEAKTMSEEEAKRRAKKYKEKVLLSELSEEEQKEIKEAEEKLVRTILKYVEEAAK
apparent Kd (screen): 0.593 nM

B2: K73F (designed binder)
chain: B1 chain with F51A, K73F
apparent Kd (screen): 15.2 nM

B3: Y70C (designed binder)
chain: B1 chain with F51A, Y70C
apparent Kd (screen): 7.78 nM

B4: K33P (designed binder)
chain: B1 chain with K33P, F51A
apparent Kd (screen): 0.593 nM

B5: M58R (designed binder)
chain: B1 chain with F51A, M58R
apparent Kd (screen): 12.5 nM

B6: E72T (designed binder)
chain: B1 chain with F51A, E72T
apparent Kd (screen): 1.27 nM

B7: E103R (designed binder)
chain: B1 chain with F51A, E103R
apparent Kd (screen): 0.539 nM

B8: I21S (designed binder)
chain: B1 chain with I21S, F51A
apparent Kd (screen): 0.446 nM

B9: E86R (designed binder)
chain: B1 chain with F51A, E86R
apparent Kd (screen): 0.593 nM

B10: A35F (designed binder)
chain: B1 chain with A35F, F51A
apparent Kd (screen): 0.956 nM

B11: K15W (designed binder)
chain: B1 chain with K15W, F51A
apparent Kd (screen): 1.16 nM

B12: E103F (designed binder)
chain: B1 chain with F51A, E103F
apparent Kd (screen): 1.05 nM

B13: K56C (designed binder)
chain: B1 chain with F51A, K56C
apparent Kd (screen): 10.4 nM

B14: R65S (designed binder)
chain: B1 chain with F51A, R65S
apparent Kd (screen): 1.69 nM

B15: K18E (designed binder)
chain: B1 chain with K18E, F51A
apparent Kd (screen): 1.86 nM

B16: V6T (designed binder)
chain: B1 chain with V6T, F51A
apparent Kd (screen): 0.49 nM

B17: R66G (designed binder)
chain: B1 chain with F51A, R66G
apparent Kd (screen): 7.07 nM

B18: K23H (designed binder)
chain: B1 chain with K23H, F51A
apparent Kd (screen): 0.49 nM

B19: E5K (designed binder)
chain: B1 chain with E5K, F51A
apparent Kd (screen): 0.446 nM

B20: R38V (designed binder)
chain: B1 chain with R38V, F51A
apparent Kd (screen): 2.48 nM

B21: K100F (designed binder)
chain: B1 chain with F51A, K100F
apparent Kd (screen): 1.27 nM

B22: M58C (designed binder)
chain: B1 chain with F51A, M58C
apparent Kd (screen): 2.73 nM

B23: M2C (designed binder)
chain: B1 chain with M2C, F51A
apparent Kd (screen): 2.73 nM

B24: Y13W (designed binder)
chain: B1 chain with Y13W, F51A
apparent Kd (screen): 2.73 nM

B25: E49W (designed binder)
chain: B1 chain with E49W, F51A
apparent Kd (screen): 16.7 nM

B26: S1P (designed binder)
chain: B1 chain with S1P, F51A
apparent Kd (screen): 0.539 nM

B27: K56P (designed binder)
chain: B1 chain with F51A, K56P
apparent Kd (screen): 24.4 nM

B28: V6H (designed binder)
chain: B1 chain with V6H, F51A
apparent Kd (screen): 0.446 nM

B29: A9W (designed binder)
chain: B1 chain with A9W, F51A
apparent Kd (screen): 3 nM

B30: K71P (designed binder)
chain: B1 chain with F51A, K71P
apparent Kd (screen): 11.4 nM

B31: E62A (designed binder)
chain: B1 chain with F51A, E62A
apparent Kd (screen): 0.446 nM

B32: V95Y (designed binder)
chain: B1 chain with F51A, V95Y
apparent Kd (screen): 3 nM

B33: E45P (designed binder)
chain: B1 chain with E45P, F51A
apparent Kd (screen): 7.78 nM

B34: E104Q (designed binder)
chain: B1 chain with F51A, E104Q
apparent Kd (screen): 1.05 nM

B35: E82Q (designed binder)
chain: B1 chain with F51A, E82Q
apparent Kd (screen): 0.49 nM

B36: K11D (designed binder)
chain: B1 chain with K11D, F51A
apparent Kd (screen): 0.446 nM

B37: D53T (designed binder)
chain: B1 chain with F51A, D53T
apparent Kd (screen): 2.73 nM

B38: E44T (designed binder)
chain: B1 chain with E44T, F51A
apparent Kd (screen): 0.956 nM

B39: S80Y (designed binder)
chain: B1 chain with F51A, S80Y
apparent Kd (screen): 2.05 nM

B40: R96H (designed binder)
chain: B1 chain with F51A, R96H
apparent Kd (screen): 2.48 nM

B41: A46M (designed binder)
chain: B1 chain with A46M, F51A
apparent Kd (screen): 0.117 nM

B42: E86S (designed binder)
chain: B1 chain with F51A, E86S
apparent Kd (screen): 0.718 nM

B43: E81Y (designed binder)
chain: B1 chain with F51A, E81Y
apparent Kd (screen): 0.653 nM

B44: I21T (designed binder)
chain: B1 chain with I21T, F51A
apparent Kd (screen): 0.49 nM

B45: A67N (designed binder)
chain: B1 chain with F51A, A67N
apparent Kd (screen): 7.07 nM

B46: K64W (designed binder)
chain: B1 chain with F51A, K64W
apparent Kd (screen): 0.446 nM

B47: M58Q (designed binder)
chain: B1 chain with F51A, M58Q
apparent Kd (screen): 11.4 nM

B48: T57L (designed binder)
chain: B1 chain with F51A, T57L
apparent Kd (screen): 0.107 nM

B49: Y13E (designed binder)
chain: B1 chain with Y13E, F51A
apparent Kd (screen): 1.54 nM

B50: E45F (designed binder)
chain: B1 chain with E45F, F51A
apparent Kd (screen): 4.39 nM

B51: A106E (designed binder)
chain: B1 chain with F51A, A106E
apparent Kd (screen): 1.27 nM

B52: L94T (designed binder)
chain: B1 chain with F51A, L94T
apparent Kd (screen): 0.446 nM

B53: K18F (designed binder)
chain: B1 chain with K18F, F51A
apparent Kd (screen): 0.869 nM

B54: E42D (designed binder)
chain: B1 chain with E42D, F51A
apparent Kd (screen): 2.73 nM

B55: E89P (designed binder)
chain: B1 chain with F51A, E89P
apparent Kd (screen): 10.4 nM

B56: E49C (designed binder)
chain: B1 chain with E49C, F51A
apparent Kd (screen): 13.8 nM

B57: E82C (designed binder)
chain: B1 chain with F51A, E82C
apparent Kd (screen): 1.86 nM

B58: K31H (designed binder)
chain: B1 chain with K31H, F51A
apparent Kd (screen): 0.446 nM

B59: A10C (designed binder)
chain: B1 chain with A10C, F51A
apparent Kd (screen): 1.05 nM
